Experiment [1] has as its target human cytoplasmic dynein (recombinant complex of DHC, DIC, DLIC, Tctex, Robl and LC8) (human) (UniProt Q14204).
Experiment [2] concerns the target dynactin (bovine (purified from bovine brain)).

B1: full-length Drosophila Bicaudal D F684I mutant (Dm BicD/F684I) (natural protein)
chain: MSSASNNGPSADQSVQDLQMEVERLTRELDQVSSASAQSAQYGLSLLEEKSALQQKCEELETLYDNTRHELDITQEALTKFQTSQKVTNKTGIEQEDALLNESAARETSLNLQIFDLENELKQLRHELERVRNERDRMLQENSDFGRDKSDSEADRLRLKSELKDLKFRETRMLSEYSELEEENISLQKQVSSLRSSQVEFEGAKHEIRRLTEEVELLNQQVDELANLKKIAEKQMEEALETLQGEREAKYALKKELDGHLNRESMYHISNLAYSIRSNMEDNASNNSDGEEENLALKRLEADLSTELKSPDGTKCDLFSEIHLNELKKLEKQLESMESEKTHLTANLREAQTSLDKSQNELQNFMSRLALLAAHVDALVQLKKQIDVKEQGKEGGQKKDELEQQLRALISQYANWFTLSAKEIDGLKTDIAELQKGLNYTDATTTLRNEVTNLKNKLLATEQKSLDLQSDVQTLTHISQNAGQSLGSARSTLVALSDDLAQLYHLVCTVNGETPTRVLLDHKTDDMSFENDSLTAIQSQFKSDVFIAKPQIVEDLQGLADSVEIKKYVDTVSDQIKYLKTAVEHTIDMNKHKIRSEGGDALEKVNTEEMEELQEQIVKLKSLLSVKREQIGTLRNVLKSNKQTAEVALTNLKSKYENEKIIVSDTMSKLRNELRLLKEDAATISSLRAMFAARCEEYVTQVDDLNRQLEAAEEEKKTLNQLLRLAVQQKLALTQRLEEMEMDREMRHVRRPMPAQRGTSGKSSFSTRPSSRNPASSNANPF
Consider B1, for which the processive run length of DDB^F684I on microtubules, single molecule TIRF in experiment [1] and in experiment [2] was 3.3 µm each time. The speed of DDB^F684I on microtubules, single molecule TIRF in experiment [1] and in experiment [2] was 0.43 µm/s throughout.

For the origin of these results see paper doi:10.1101/776187.
